Among the data in publication PMC5541836 are raw mean rupture force values, retold here.

The test deals with Wild-type spindle pole bodies (SPBs) purified from budding yeast (strain BGY72-8A: Spc97-TAP, Spc42-mCherry) (budding yeast) (UniProt P38863). The test can be described thus: laser trap rupture force.
Wild-type spindle pole bodies (SPBs) purified from budding yeast (strain BGY72-8A: Spc97-TAP, Spc42-mCherry) (budding yeast), sequence (P38863 whole entry, looked up): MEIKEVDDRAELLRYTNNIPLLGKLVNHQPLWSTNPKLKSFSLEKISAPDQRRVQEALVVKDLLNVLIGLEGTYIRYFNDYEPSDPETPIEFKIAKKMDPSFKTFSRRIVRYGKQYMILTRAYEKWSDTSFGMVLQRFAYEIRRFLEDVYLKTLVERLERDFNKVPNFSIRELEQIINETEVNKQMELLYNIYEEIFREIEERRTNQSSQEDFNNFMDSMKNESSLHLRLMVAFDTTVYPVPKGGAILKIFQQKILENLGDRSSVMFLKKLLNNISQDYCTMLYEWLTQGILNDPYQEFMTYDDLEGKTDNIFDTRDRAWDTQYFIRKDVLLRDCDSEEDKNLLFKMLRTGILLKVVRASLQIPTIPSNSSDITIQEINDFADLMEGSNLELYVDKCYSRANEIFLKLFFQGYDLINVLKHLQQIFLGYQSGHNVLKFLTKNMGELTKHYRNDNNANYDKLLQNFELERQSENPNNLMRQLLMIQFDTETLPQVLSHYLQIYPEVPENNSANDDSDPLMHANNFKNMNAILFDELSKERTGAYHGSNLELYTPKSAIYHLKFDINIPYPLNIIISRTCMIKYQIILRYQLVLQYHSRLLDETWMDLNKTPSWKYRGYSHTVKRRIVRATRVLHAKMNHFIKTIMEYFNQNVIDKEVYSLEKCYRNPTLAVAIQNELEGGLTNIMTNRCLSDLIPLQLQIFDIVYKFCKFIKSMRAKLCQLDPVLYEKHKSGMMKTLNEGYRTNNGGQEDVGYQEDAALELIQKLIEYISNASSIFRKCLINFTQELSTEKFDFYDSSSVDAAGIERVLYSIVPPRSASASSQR

Microtubules assembled from bovine brain tubulin, sequence (Q6B856 whole entry, looked up): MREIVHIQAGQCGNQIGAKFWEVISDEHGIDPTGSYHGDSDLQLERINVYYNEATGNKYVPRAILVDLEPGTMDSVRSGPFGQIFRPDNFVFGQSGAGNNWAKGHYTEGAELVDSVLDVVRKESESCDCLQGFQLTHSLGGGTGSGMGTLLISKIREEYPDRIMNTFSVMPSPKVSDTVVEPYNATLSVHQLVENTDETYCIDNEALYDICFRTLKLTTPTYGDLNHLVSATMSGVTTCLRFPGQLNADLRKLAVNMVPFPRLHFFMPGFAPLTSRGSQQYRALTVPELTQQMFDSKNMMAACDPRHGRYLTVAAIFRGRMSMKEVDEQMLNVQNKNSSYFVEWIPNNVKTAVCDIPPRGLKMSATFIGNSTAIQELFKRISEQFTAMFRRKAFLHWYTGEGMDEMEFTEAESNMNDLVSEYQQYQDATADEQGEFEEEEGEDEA

The substance “Microtubules assembled from bovine brain tubulin (from UniProt Q6B856 1-445) (complex)” registered a raw mean rupture force of 45 pN.
